Columns and labels:
[1] = endogenous DDX3X western blot, HEK293T
[2] = total DDX3X western blot, siRNA knock-down/rescue; conditions: glycan lost; control: siDDX3X + SIR FLAG-DDX3X WT
[3] = FLAG western blot, transfected HEK293T, normalised to β-tubulin; conditions: glycan lost; control: FLAG-DDX3X WT
[4] = MG132 rescue of FLAG-DDX3X levels, P2A-GFP normalised; conditions: glycan lost; control: FLAG-DDX3X WT
[5] = cycloheximide chase, FLAG western blot, HEK293T; conditions: glycan lost; control: FLAG-DDX3X WT

B1: DDX3X: OGT siRNA (protein)
parent chain: MSHVAVENALGLDQQFAGLDLNSSDNQSGGSTASKGRYIPPHLRNREATKGFYDKDSSGWSSSKDKDAYSSFGSRSDSRGKSSFFSDRGSGSRGRFDDRGRSDYDGIGSRGDRSGFGKFERGGNSRWCDKSDEDDWSKPLPPSERLEQELFSGGNTGINFEKYDDIPVEATGNNCPPHIESFSDVEMGEIIMGNIELTRYTRPTPVQKHAIPIIKEKRDLMACAQTGSGKTAAFLLPILSQIYSDGPGEALRAMKENGRYGRRKQYPISLVLAPTRELAVQIYEEARKFSYRSRVRPCVVYGGADIGQQIRDLERGCHLLVATPGRLVDMMERGKIGLDFCKYLVLDEADRMLDMGFEPQIRRIVEQDTMPPKGVRHTMMFSATFPKEIQMLARDFLDEYIFLAVGRVGSTSENITQKVVWVEESDKRSFLLDLLNATGKDSLTLVFVETKKGADSLEDFLYHEGYACTSIHGDRSQRDREEALHQFRSGKSPILVATAVAARGLDISNVKHVINFDLPSDIEEYVHRIGRTGRVGNLGLATSFFNERNINITKDLLDLLVEAKQEVPSWLENMAYEHHYKGSSRGRSKSSRFSGGFGARDYRQSSGASSSSFSSSRASSSRSGGGGHGSSRGFGGGGYGGFYNSDGYGGNYNSQGVDWWGN
For B1, the expression_or_secretion ([1]; glycan lost, control: siRNA against firefly luciferase) was “decreases”.

B2: DDX3X: SIR FLAG-DDX3X Ser584Ala (protein)
parent chain: B1 parent chain
For B2, the expression_or_secretion [2] was “decreases”.

B3: DDX3X: FLAG-OGT WT over-expression (protein)
parent chain: B1 parent chain
For B3, the expression_or_secretion ([1]; glycan gained, control: FLAG-empty vector) was “increases”.

B4: DDX3X: Ser584Ala (protein)
parent chain: B1 parent chain
With B4 the “expression_or_secretion, percent_of_wt” value [3] was “decreases”, the “degradation_or_half_life, other: proteasome-dependent loss of protein” value [4] was “decreases” and the “degradation_or_half_life, other: turnover rate” value [5] was “decreases”.
